According to paper PMC8626535:

Columns and labels:
NKp30-Fc (human) = NKp30-Fc (human) (UniProt O14931); test: BLI
CC3-Fc (human) = CC3-Fc (human) (UniProt O14931); test: BLI

Kd (NKp30-Fc (human))	Kd (CC3-Fc (human))	Molecule
1300 nM	–	Soluble monomeric B7H6-His (from UniProt Q68D85 25-262) (domain or fragment)
–	680 nM	Soluble monomeric B7H6-His (domain or fragment) DLKVEMMAGGTQITPLNDNVTIFCNIFYSQPLNITSMGITWFWKSLTFDKEVKVFEFFGDHQEAFRPGAIVSPWRLKSGDASLRLPGIQLEEAGEYRCEVVVTPLKAQGTVQLEVVASPASRLLLDQVGMKENEDKYMCESSGFYPEAINITWEKQTQKFPHPIEISEDVITGPTIKNMDGTFNVTSCLKLNSSQEDPGTVYQCVVRHASLHTPLRSNFTLTAARHSLSETEKTDNFS
